Source: the Immune Epitope Database (IEDB)

Experiments:
[1] = molecular target: HLA-B*15:01; test: IEDB peptide-MHC binding, purified MHC/direct/fluorescence; filed as Kd, often an IC50 or EC50 that approximates it; ≥ and ≤ were set here for values at or beyond the usual limits of such assays
[2] = molecular target: HLA-A*69:01; test: as above
[3] = molecular target: HLA-A*01:01; test: as above
[4] = molecular target: HLA-B*27:05; test: as above
[5] = molecular target: HLA-A*26:01; test: as above
[6] = molecular target: HLA-B*44:02; test: as above; settings: source organism: Rickettsia sibirica
[7] = molecular target: HLA-A*02:01; test: as above
[8] = molecular target: HLA-B*40:01; test: as above
[9] = molecular target: HLA-A*03:01; test: as above
[10] = molecular target: HLA-B*07:02; test: as above
[11] = molecular target: HLA-B*08:01; test: as above; settings: source organism: Rickettsia sibirica
[12] = molecular target: HLA-A*31:01; test: as above
[13] = molecular target: HLA-B*58:01; test: as above
[14] = molecular target: HLA-A*30:01; test: as above; settings: source organism: Rickettsia sibirica
[15] = molecular target: HLA-B*83:01; test: IEDB peptide-MHC binding, purified MHC/competitive/fluorescence; filed as Kd, often an IC50 or EC50 that approximates it; ≥ and ≤ were set here for values at or beyond the usual limits of such assays
[16] = molecular target: HLA-B*45:06; test: as above
[17] = molecular target: HLA-A*03:01; test: as above; settings: source organism: Influenza A virus H3N2
[18] = molecular target: HLA-A*68:23; test: as above
[19] = molecular target: HLA-A*31:01; test: as above; settings: source organism: Influenza A virus H3N2
[20] = molecular target: HLA-B*15:42; test: as above
[21] = molecular target: HLA-B*27:05; test: as above; settings: source organism: Ehrlichia chaffeensis
[22] = molecular target: HLA-A*26:01; test: as above; settings: source organism: Ehrlichia chaffeensis
[23] = molecular target: HLA-A*02:06; test: as above; settings: source organism: Ehrlichia chaffeensis
[24] = molecular target: HLA-B*07:02; test: as above; settings: source organism: Ehrlichia chaffeensis
[25] = molecular target: HLA-A*26:03; test: as above; settings: source organism: Ehrlichia chaffeensis
[26] = molecular target: HLA-B*35:01; test: as above; settings: source organism: Ehrlichia chaffeensis
[27] = molecular target: HLA-B*46:01; test: IEDB peptide-MHC binding, purified MHC/direct/fluorescence; filed as Kd, often an IC50 or EC50 that approximates it; ≥ and ≤ were set here for values at or beyond the usual limits of such assays
[28] = molecular target: HLA-A*11:01; test: as above
[29] = molecular target: HLA-B*57:01; test: as above
[30] = molecular target: HLA-B*15:17; test: as above
[31] = molecular target: HLA-A*68:02; test: as above
[32] = molecular target: HLA-B*48:01; test: as above
[33] = molecular target: HLA-B*18:01; test: as above
[34] = molecular target: HLA-B*15:01; test: IEDB peptide-MHC binding, purified MHC/competitive/fluorescence; filed as Kd, often an IC50 or EC50 that approximates it; ≥ and ≤ were set here for values at or beyond the usual limits of such assays
[35] = molecular target: HLA-A*26:03; test: IEDB peptide-MHC binding, purified MHC/direct/fluorescence; filed as Kd, often an IC50 or EC50 that approximates it; ≥ and ≤ were set here for values at or beyond the usual limits of such assays; settings: source organism: Burkholderia mallei ATCC 23344
[36] = molecular target: HLA-B*40:01; test: IEDB peptide-MHC binding, purified MHC/competitive/fluorescence; filed as Kd, often an IC50 or EC50 that approximates it; ≥ and ≤ were set here for values at or beyond the usual limits of such assays; settings: source organism: Yersinia pseudotuberculosis IP 31758
[37] = molecular target: HLA-C*06:02; test: IEDB peptide-MHC binding, purified MHC/direct/fluorescence; filed as Kd, often an IC50 or EC50 that approximates it; ≥ and ≤ were set here for values at or beyond the usual limits of such assays; settings: source organism: Yersinia pseudotuberculosis IP 31758
[38] = source organism: Rickettsia sibirica
[39] = source organism: Influenza A virus H3N2
[40] = source organism: Brucella abortus 2308
[41] = source organism: Burkholderia mallei
[42] = source organism: Yersinia pseudotuberculosis IP 31758

AIKPITDQF
Kd [1, 38]: ≥ 20 µM
Kd [2, 38]: ≥ 20 µM
Kd [3, 38]: ≥ 20 µM
Kd [4, 38]: ≥ 20 µM
Kd [5, 38]: ≥ 20 µM
Kd [6]: ≥ 20 µM
Kd [7, 38]: ≥ 20 µM
Kd [8, 38]: ≥ 20 µM
Kd [9, 38]: ≥ 20 µM
Kd [10, 38]: 5.83 µM
Kd [11]: ≥ 20 µM
Kd [12, 38]: ≥ 20 µM
Kd [13, 38]: ≥ 10 µM
Kd [14]: 8.09 µM

FSFGGFTFK
Kd [15, 39]: ≥ 5 µM
Kd [16, 39]: ≥ 5 µM
Kd [17]: 0.0037 µM
Kd [18, 39]: 0.0219 µM
Kd [19]: ≤ 0.001 µM
Kd [20, 39]: ≥ 5 µM

RVYKNYDPR
Kd [21]: 1.06 µM
Kd [22]: ≥ 20 µM
Kd [23]: ≥ 20 µM
Kd [24]: ≥ 20 µM
Kd [25]: ≥ 20 µM
Kd [26]: 1.67 µM
Kd [1, 40]: ≥ 20 µM
Kd [2, 40]: ≥ 20 µM
Kd [3, 40]: ≥ 20 µM
Kd [27, 40]: ≥ 20 µM
Kd [28, 40]: 0.101 µM
Kd [7, 40]: ≥ 20 µM
Kd [8, 40]: ≥ 20 µM
Kd [29, 40]: ≥ 20 µM
Kd [30, 40]: ≥ 20 µM
Kd [31, 40]: ≥ 20 µM
Kd [32, 40]: ≥ 20 µM
Kd [33, 40]: ≥ 20 µM
Kd [12, 40]: 0.0513 µM
Kd [13, 40]: ≥ 20 µM

IQRRGAQFQ
Kd ([34]; source organism: Burkholderia mallei SAVP1): 3.18 µM
Kd [3, 41]: ≥ 20 µM
Kd [27, 41]: ≥ 20 µM
Kd [4, 41]: ≥ 20 µM
Kd ([5]; source organism: Burkholderia mallei ATCC 23344): ≥ 20 µM
Kd [28, 41]: ≥ 20 µM
Kd [7, 41]: ≥ 20 µM
Kd [8, 41]: ≥ 20 µM
Kd [29, 41]: ≥ 20 µM
Kd [9, 41]: ≥ 20 µM
Kd [30, 41]: ≥ 20 µM
Kd [31, 41]: ≥ 20 µM
Kd [10, 41]: ≥ 20 µM
Kd [32, 41]: ≥ 20 µM
Kd [33, 41]: ≥ 20 µM
Kd [12, 41]: ≥ 20 µM
Kd [13, 41]: ≥ 20 µM
Kd [35]: ≥ 20 µM

RQMRASAPL
Kd [34, 42]: 0.145 µM
Kd [15, 42]: ≥ 5 µM
Kd [36]: 0.0181 µM
Kd [16, 42]: ≥ 5 µM
Kd [18, 42]: 0.0024 µM
Kd [20, 42]: ≥ 5 µM
Kd [37]: ≥ 20 µM
